For the assay, the target named is GFP-MG53 (mouse) (UniProt Q1XH17). Nature of the assay: cell-based or functional assay.
Chain of UniProt Q1XH17 (Q1XH17 whole entry): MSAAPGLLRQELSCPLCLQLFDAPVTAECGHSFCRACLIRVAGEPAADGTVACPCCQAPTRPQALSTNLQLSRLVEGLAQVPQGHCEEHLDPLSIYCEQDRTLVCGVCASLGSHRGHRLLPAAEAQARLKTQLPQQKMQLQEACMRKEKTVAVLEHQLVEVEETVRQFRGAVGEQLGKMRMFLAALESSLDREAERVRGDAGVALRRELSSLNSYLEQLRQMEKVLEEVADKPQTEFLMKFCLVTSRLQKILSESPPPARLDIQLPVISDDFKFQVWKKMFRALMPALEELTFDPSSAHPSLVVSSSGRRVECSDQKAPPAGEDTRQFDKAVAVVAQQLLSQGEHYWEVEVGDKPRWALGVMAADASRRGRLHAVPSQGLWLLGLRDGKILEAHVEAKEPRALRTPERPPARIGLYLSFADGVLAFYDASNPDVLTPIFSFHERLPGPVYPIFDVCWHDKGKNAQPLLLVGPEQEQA

For “caveolin-3 overexpressed from pcDNA-Cav-3”, the reduction in the appearance of filapodia-like structures stood at 82%.

These data come from US20140024594A1.
